Experimental data taken from the nanobody polyreactivity screen of Harvey et al. (2022).

assay: yeast display, Sf9 membrane polyspecificity reagent, FACS + sequencing; frameworks hold sequencing errors
Outline: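 Nanobodies from a synthetic yeast display library (Saccharomyces cerevisiae BJ5465), induced 36–48 hours with galactose, were stained 1 hour at 4 °C with 10% biotinylated, detergent-solubilized Sf9 membrane reagent, enriched on streptavidin microbeads, then FACS-sorted. Anti-HA (expression) and streptavidin (reagent binding) fluorescence set low and high (top ~1%) gates. Polyreactivity labels come from the gate of origin. Genes were colony-PCR amplified, MiSeq 2 × 250 sequenced and filtered by CDR length.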

| Sequence | polyreactivity (PSR sort gate) |
| --- | --- |
| QVQLVESGGGLVQAGGSLRLSCAASGSIFFGYAMGWYRQAPGKERELVATITSSGGITYYADSVKGRFTISRDNAKNTVYLQMNSLKPEDTAVYYCATYYYYTYDYWGQGTQVTVSS | low polyreactivity |
| QVQLVESGGGLVQAGGSLRLSCAASGSIFFGYGMGWYRQAPGKERELVATITTSGGTYYADAVKGRFTISRDNAKNTVYLQMNSLKPEDTAVYYCAATAAALDGNTIMYYWGQGTQVTVSS | low polyreactivity |
| QVQLVESGGGLVQAGGSLRLSCAASGSIFFINAMGWYRQAPGKERELVAAIRRGGSTYADSVKGRFTISRDNAKNTVYLQMNSLKPEDTAVYYCAARITWGATAKSRYSYLYDYWGQGTQVTVSS | high polyreactivity |
| QVQLVESGGGLVQAGGSLRLSCAASGSIFFIYAMGLYRQAPGKERELVAGITSRGITNYADSVKGRFTISRDNAKNTVYLQMNSLKPEDTAVYYCAAGDENYTDRYDYWGQGTQVTVSS | low polyreactivity |
| QVQLVESGGGLVQAGGSLRLSCAASGSIFFLYAMGWYRQAPGKERELVAAISRDGRTNYADSVKGRFTISRDNAKYTVYLQMKSLKPEDTAVYYGAKDGNHPGAVGYGYWGQGTQVTVSS | low polyreactivity |
| QVQLVESGGGLVQAGGSLRLSCAASGSIFFPNPLGWYRQAPGKERELVDAISWSGDSSYADSVKGRFTISRDNAKNTVYLQMNSLKPEDTAVYYCAAVYLWWSYEFDYWGQGTQVTVSS | low polyreactivity |
| QVQLVESGGGLVQAGGSLRLSCAASGSIFFPYTMGWYRQAPGKERELVARISLGGGRTYYADSVKGRFTISRDNAKNTVYLQMNSLKPEDTAVYYCNRGGWYAYYWGQGTQVTVSS | high polyreactivity |
| QVQLVESGGGLVQAGGSLRLSCAASGSIFFPYVMGWYRQAPGKERELVAAITYRAGSTYYADSVKGRFTISRDNAKNTVYLQMNSLKPEDTAVYYCAAVVSRSGEFGYWGQGTQVTVSS | low polyreactivity |
| QVQLVESGGGLVQAGGSLRLSCAASGSIFFRNAMGWYRQAPGKERELVASITSGGSTYYADSVKGRFTISRDNAKNTVYLLMNSLKPEDTAVFYCAARLWHLSYAGQGGDYWGQGTQVTVSS | low polyreactivity |
| QVQLVESGGGLVQAGGSLRLSCAASGSIFFRYAMGWYRPAPGKERELVAAISSDGSTYYADSVKGRFTISRDNAKNTVYLQMNSLKPEDTAVYYCNAEQAIFYWYATVTYDYWGQGTQVTVSS | low polyreactivity |
| QVQLVESGGGLVQAGGSLRLSCAASGSIFFSNAMGWYRQAPGKEREFVATITSSGVGTYYADSVKGRFTISRDNAKNTVYLQMNSLKPEDTAVDYCDADYNSQEDYWGQGTQVTVSS | low polyreactivity |
| QVQLVESGGGLVQAGGSLRLSCAASGSIFFSYAMGWYRQAPGKERELVAAITSSVDSTYYADSVKGRFTISRDNAKNTVYLQMNSLKPEDTAVYYCDARYRSGYYRYDYWGQGTQVTVSS | low polyreactivity |
| QVQLVESGGGLVQAGGSLRLSCAASGSIFFSYAMGWYRQAPGKERELVAGINWSGGSTYADSVKGRFTISRDNAKNPVYLQMNSLTPEDTAVYYCAAKYYSERSRYHYWGQGTQVTVSS | low polyreactivity |
| QVQLVESGGGLVQAGGSLRLSCAASGSIFFSYAMGWYRQAPGKERELVAGINWSGGSTYADSVKGRFTISRDNAKNTVYLQMNSLKPEDTAVYYCAAKYYSERSRYHYWGQGTQVTVSS | low polyreactivity |
| QVQLVESGGGLVQAGGSLRLSCAASGSIFFTNVMGWYRQAPGKEREFVAAITGGGGSTYYADSVKGRFTISRDNAKNTVYLQMNSLKPEDTAVYYCATKAKPRSGYNYWGQGTQVTVSS | low polyreactivity |
| QVQLVESGGGLVQAGGSLRLSCAASGSIFFTYAMGWYRQAPGKERELVAVISSNGARTYYADSVKGRFTISRDNAKNTVYLQMNSLKPEDPAVYYCAARSQGNYGWGQGTQVTVSS | high polyreactivity |
| QVQLVESGGGLVQAGGSLRLSCAASGSIFFVNAMGWYRQAPGKERELVAAITSGGNTNYADSVKGRFTISRDNAKNTVYFQMNSLKPEDTAVFYSATSYYLAYRSITTYDYWGQGTQVTVSS | low polyreactivity |
| QVQLVESGGGLVQAGGSLRLSCAASGSIFFWYTMGWYREAPGKERELVATITGSGSSTTYADSVKGRFTISRDNAKNTVYLQMNSLKPEDTAVYYCAAADIIDHSFPYDYWGQGTQVTVSS | low polyreactivity |
| QVQLVESGGGLVQAGGSLRLSCAASGSIFFYAMGWYRQAPGKERELVAGITSGGSTYYADSVKGRFTISRDNAKNTVYLQMNSLKPEDTAVYYCAARRRGYKYTYNSWGQGTQVTVSS | high polyreactivity |
| QVQLVESGGGLVQAGGSLRLSCAASGSIFFYNAMGWYRQAPGKERELVAAISRGGNTNYADSVKGRFTISRDNAKNTVNLQLNSLKPEDTAVYYCNADYSFWATPYWEYGYDYWGQGTQVTVTS | low polyreactivity |
| QVQLVESGGGLVQAGGSLRLSCAASGSIFFYYAMGWYRQAPGKERELVAAINSDGSTNYADSVKGRFTISRDNAKNTVFLQMNSLKPEDTAVYYCAAEWFPYRWGYGYWGQGTEVTVSS | low polyreactivity |
| QVQLVESGGGLVQAGGSLRLSCAASGSIFFYYAMGWYRQAPGKERELVAAIRSGTSTNYADSVKGRFTISRDNAKNTVYLQMNSLKPEDTAVYYCAARFPGGGYGMDYWGQGTQVTVSS | low polyreactivity |

| Sequence | polyreactivity (PSR sort gate) |
| --- | --- |
| QVQLVESGGGLVQAGGSLRLSCAASGSIFFYYSMGWYRQAPGKERELVAAISLSGGRTYYADSVKGRSTISRDNAKNTVYLQMNSLKPEDTAVYYCNAASLSGRGQSYHYHGYDYWGQGTQVTVSS | high polyreactivity |
| QVQLVESGGGLVQAGGSLRLSCAASGSIFFYYTMGWYRQAPGKERELVAAISVGGSTYYADSVKGRFTISRDNAKNTVYLQMNSLKPEDTAVYYCNAVPAKGYVTVVRYYYWGQGTQVTVSS | low polyreactivity |
| QVQLVESGGGLVQAGGSLRLSCAASGSIFGAYAMGRYRQAPGKERELVAAITSGGSTNYADSVKGRFTISRDNAKNTVYLQMNSLKPEDTADYYCAARRRYAKFRYDYWGQGTQVTVSS | high polyreactivity |
| QVQLVESGGGLVQAGGSLRLSCAASGSIFGAYAMGWYRQAPGKERELVAAISGSGTSTYYADSVKGRFTISRDNAKNTVYLQMYSLKPEDTAVYYCAADGTYFYIYLGDRFDYWGQGTQVTVSS | low polyreactivity |
| QVQLVESGGGLVQAGGSLRLSCAASGSIFGAYAMGWYRQAPGKERELVAAITWRGGSTYYADSVKGRFTISRDNAKNTVYLQMNSLKPEDTAVYYCAARYLRPDGDALTRYGYWGQGTQVTVSS | high polyreactivity |
| QVQLVESGGGLVQAGGSLRLSCAASGSIFGAYAMGWYRQAPGKERELVAVISRSGGRTYYADSVKGRFTISRDNAKNTVYLQMNSLKPEDTAVYYCAASYPVPPYGMDYWGQGTQVTVSS | high polyreactivity |
| QVQLVESGGGLVQAGGSLRLSCAASGSIFGAYAMGWYRQAPGKESELVAVIRWGGGSTYADSVKGRFTISRDNAKNTVYLQMNSLKPEDTAVYYCNRDKSWADLYSHAYDYWGQGTQVTVSS | low polyreactivity |
| QVQLVESGGGLVQAGGSLRLSCAASGSIFGAYTMGGYRQAPGKERELVAAITWSGGCTYYADSVKGRFTISRDNAKNTVYLQMNSLKPEDTAVYYCAAVFLRARYKYNYWGQGTQVTVSS | high polyreactivity |
| QVQLVESGGGLVQAGGSLRLSCAASGSIFGDYAMGWYRQAPGKERELVAAIRYIGVSTYYADSVKGRFTISRDNAKNTVYLQMNSLKPEDTAVYYCAAEVYYEYYYWRYYWGQGTQVTVSS | high polyreactivity |
| QVQLVESGGGLVQAGGSLRLSCAASGSIFGDYAMSWYRQAPGKERELVATITWIGGSTYYADSVKGRFTISRDNAKNTVYLQMNSLKPADTAVYYCAIYMGSYRLDYWGQGPQVTVSS | low polyreactivity |
| QVQLVESGGGLVQAGGSLRLSCAASGSIFGDYVMGWYRQAPGKERELVAAINRGGSTYYADSVKARFTISRDNAKNTVYLQMNSLKPEDTAVYYCAAGYPSWYYGYPYDSWGQGTQVTVSS | low polyreactivity |
| QVQLVESGGGLVQAGGSLRLSCAASGSIFGENAMGWDRQAPGKERELVAAITSGGSTDYADSVKGRFTISRDNAKNTVYLQMNSLKPEDTAVYYCAASGRVGPGYWYDSWGQGTQVTVSS | low polyreactivity |
| QVQLVESGGGLVQAGGSLRLSCAASGSIFGENAMGWYRQATGKERELVAAITWGGTSTYYADSVKGRYTISRDNAKNTVYLQMNSLKPEDTAVYYCNTPRYVRRQGVKRYDYWGQGTQVTVSS | low polyreactivity |
| QVQLVESGGGLVQAGGSLRLSCAASGSIFGEYAMGWSRQAPGKERELVATIRQSGDSTYYADSVKGRFTISRDNAKNTVYLQMNSLKPEDTEVYYCADDLWLYDYYSEYDYWGQGTQVTVSS | low polyreactivity |
| QVQLVESGGGLVQAGGSLRLSCAASGSIFGFNAMGWYRQAPGKEREFVAAISKSGGSTYYADSVKGRFTISCDNAKNTVYLQMNSLKPEDTAVYYCNAKSRHYEPYDYWGQGTQVTVSS | high polyreactivity |
| QVQLVESGGGLVQAGGSLRLSCAASGSIFGFNAMGWYRQAPGTERELVAAITWSGVSTYYADSVKGRFTISRDNAKNTVYLQMNSLKPEDTAVYYCAADVIIDWWYEMDYWGQGTQVTVSS | high polyreactivity |
| QVQLVESGGGLVQAGGSLRLSCAASGSIFGFNAMGWYRQARGKERELVAAINNGGSTNYADSVKGRFTISRDNAKNTVYLQMNSLKPEDTAVYYCAARLNYIRRGYWGQGTQVTVSS | high polyreactivity |
| QVQLVESGGGLVQAGGSLRLSCAASGSIFGFNAMGWYSQAPGKEREMVAAINNGGSTNYADSVKGRFTISRDNAKNTVYLQMNSLKPEDTAVYYCAAVRFRPRRNEYWGQGTQVTVSS | high polyreactivity |
| QVQLVESGGGLVQAGGSLRLSCAASGSIFGFYAMGWYRQAPGKERELVAAITFSGGSTDYADSVKGRFTISRDNAKNTVYLQMNSLKPEDTAVYYCAARGYAIYSYWYYEPYDYWGQGTQVTVSS | high polyreactivity |
| QVQLVESGGGLVQAGGSLRLSCAASGSIFGFYAMGWYRQAPGKERELVAGISYGDSSTYYADSVKGRFTISRDNAKNTVYLQMNSLKPEDTAVYYCAAGHRQKYNWGRYDYWGQGTQVTVSS | low polyreactivity |
| QVQLVESGGGLVQAGGSLRLSCAASGSIFGGNAMGWYRQAPGKERELVATIDFSGTSTYYADSVKGRFTISRDNAKITVYLQMNSLKPEDTAVYYCAVRSGYVNRRYDYWGQGTQVTVSS | low polyreactivity |
